Laboratory results from patent publication US20240317826A1, “COMPOSITIONS AND METHODS FOR TREATING AND/OR I[…] AGENT FOR TREATING HIV-1 INFECTIONS” (priority 2021, published 2024).

B1: INI1183-304: INI1 fragment aa 183-304 (Rpt1, linker, part of Rpt2), expressed as His6-SUMO fusion (protein)
chain: PEVLVPIRLDMEIDGQKLRDAFTWNMNEKLMTPEMFSEILCDDLDLNPLTFVPAIASAIRQQIESYPTDSILEDQSDQRVIIKLNIHVGNISLVDQFEWDMSEKENSPEKFALKLCSELGLG
modifications: left off: large carriers
notes: INI1 fragment aa 183-304 (Rpt1, linker, part of Rpt2), expressed as His6-SUMO fusion
B2: S6: INI1 fragment (aa 183-294) harboring the Rpt1 domain, linker region and a part of Rpt2 (protein, UniProt Q12824 183-294, looked up, fragment)
chain: PEVLVPIRLDMEIDGQKLRDAFTWNMNEKLMTPEMFSEILCDDLDLNPLTFVPAIASAIRQQIESYPTDSILEDQSDQRVIIKLNIHVGNISLVDQFEWDMSEKENSPEKFA

Tests used:
IN-CTD = target: T1, IN-CTD (Human immunodeficiency virus type 1 group M subtype B, UniProt P04585); assay: Alpha proximity assay, binding of His6-SUMO-INI1183-304 to GST-CTD; set-up: species or system HIV-1
T1 construct: pGEX3x-IN and pGST-IN-CTD(aa 201-288) were used as templates; made in house; host or cells: bacteria (E. coli)
Protocol: FIG. 16A-FIG. 16H show quantitative Alpha protein-protein interaction assay to determine the interaction of IN, CTD, and the mutants with INI1 and INI1183-304. […] A titration curve was generated with increasing concentrations of His6-SUMO-INI1183-304 with two different fixed concentration of GST-CTD and the interactions were detected as Alpha Score. The KD values were determined by nonlinear regression analysis using specific binding with Hill slope analysis in GraphPad Prism. Data from one representative experiment is depicted. FIG. 16B and FIG. 16C show effect of salt on the interactions of GST-CTD either with His6-SUMO-INI1183-304 or biotinylated(Bio)-TAR RNA (n=3 independent experiments). The interaction was tested using fixed concentrations of GST-CTD (0.75 μM) and increasing concentrations of His6-SUMO-INI1183-304 (or Bio-TAR RNA) in two different NaCl conditions (100 and 500 mM). […] The IC50 values were determined by fitting the data to a four-parameter dose-response curve using GraphPad prism. […]
AlphaScreen proximity assay to detect the protein-protein and protein-RNA interactions. […] The Alpha score readings were measured using Alpha-compatible Envision 2105 multi-plate reader (Perkin-Elmer). All the experiments related to this method were carried out 3 to 5 times and data were analyzed by using Graph Pad Prism 9 version 9.0.0 (GraphPad Software, CA). […]

[1] = tested on: HIV-1 particle production; conditions: by binding to IN within GagPol; cited from earlier work

Molecule	KD for binding, IN-CTD/INI1183-304 (IN-CTD)	inhibition of HIV-1 particle production [1]
B1	low nM	
B2		trans-dominantly inhibits HIV-1 particle production
